This assay deals with T1, mouse FLT1-FC chimeric protein with His-tag (mouse, UniProt P35969 23-759).
T1 sequence (looked up): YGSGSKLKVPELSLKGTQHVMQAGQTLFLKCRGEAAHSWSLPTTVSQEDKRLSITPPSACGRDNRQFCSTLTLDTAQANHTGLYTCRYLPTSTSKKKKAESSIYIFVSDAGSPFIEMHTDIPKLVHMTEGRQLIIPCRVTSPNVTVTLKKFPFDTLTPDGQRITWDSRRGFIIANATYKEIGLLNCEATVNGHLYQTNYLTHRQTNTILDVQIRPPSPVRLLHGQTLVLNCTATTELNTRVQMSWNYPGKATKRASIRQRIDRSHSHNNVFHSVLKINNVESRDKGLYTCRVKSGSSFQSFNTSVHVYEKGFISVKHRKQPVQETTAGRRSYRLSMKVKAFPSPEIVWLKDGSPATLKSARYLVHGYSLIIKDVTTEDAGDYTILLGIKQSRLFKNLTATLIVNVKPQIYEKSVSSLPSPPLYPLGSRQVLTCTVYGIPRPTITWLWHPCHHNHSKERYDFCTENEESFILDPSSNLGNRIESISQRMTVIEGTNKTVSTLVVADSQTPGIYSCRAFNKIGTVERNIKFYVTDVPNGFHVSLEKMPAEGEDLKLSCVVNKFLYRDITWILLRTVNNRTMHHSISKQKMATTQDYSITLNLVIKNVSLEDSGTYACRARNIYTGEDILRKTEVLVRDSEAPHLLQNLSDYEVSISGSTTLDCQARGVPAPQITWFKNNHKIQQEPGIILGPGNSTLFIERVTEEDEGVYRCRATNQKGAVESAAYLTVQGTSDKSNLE
As to the kind of experiment: ELISA.

B1: recombinant mouse PlGF2 (ligand, UniProt P49764 19-158, looked up)
chain: VHSQGALSAGNNSTEVEVVPFNEVWGRSYCRPMEKLVYILDEYPDEVSHIFSPSCVLLSRCSGCCGDEGLHCVPIKTANITMQILKIPPNRDPHFYVEMTFSQDVLCECRPILETTKAERRKTKGKRKRSRNSQTEEPHP
With B1, the binding result is on record as “binds”.

These data come from publication doi:10.1101/609735 (bioRxiv, 2019).
